Patent publication US20210338852A1 (NIHON MEDI PHYSICS, published 2021)

Legend:
[1] = biological target: T1, mucin subtype 5AC (MUC5AC) (human (from transplanted human …, UniProt P98088 28-5654, limits assumed)); experiment: in vitro autoradiography; mean of small ROIs in MUC5AC positive vs negative tumor sections
T1 construct: Secretory mucin glycoprotein; target present in tumor tissue sections, not as purified protein

[2] = biological target: T1, mucin subtype 5AC (MUC5AC); experiment: in vitro autoradiography; whole-section ROI of MUC5AC positive vs negative tumor sections

B1: ^225Ac-labeled anti-MUC5AC humanized antibody prepared using ^225Ac-labeled DOTAGA-DBCO (monovalent antibody; H01L03) (antibody, human IgG1, kappa, V domains shown)
VH: EVQLLESGGGLVQPGGSLRLSCAASGFTFSNYGMSWVRQAPGKGLEWVSTISNSGRYTYFPDSVKGRFTISRDNSKNTLYLQMNSLRAEDTALYYCTRHLDYANYDAMDYWGQGTLVTVSS
VL: DIQMTQSPSSLSASVGDRVTITCRASKSVTTSDFSYMHWYQQKPGKSPKLLIYLASNLESGVPSRFSGSGSGTDFSLTISSLQPEDFATYYCQHSREFPWTFGGGTKVEIKR
modifications: Fc region site-specifically modified (Lys252, Eu numbering) by one molecule per antibody of antibody-modification peptide (SEQ ID NO: 10 with Xaa2 = lysine, disulfide between its two cysteines, N-terminal diglycolic acid-PEG8-ethyl azide); azide click-reacted with ^225Ac-chelated DOTAGA-DBCO
notes: also called RI-labeled anti-MUC5AC humanized antibody prepared using ^225Ac-labeled DOTAGA-DBCO; ^225Ac-labeled antibody
binding ratio to the MUC5AC positive tumor and the negative tumor [1]: 6.5 fold

B2: ^89Zr-labeled anti-MUC5AC humanized antibody prepared using ^89Zr-labeled DOTAGA-DBCO (monovalent antibody; H01L03) (antibody, human IgG1, kappa, V domains shown)
VH: B1 VH
VL: B1 VL
modifications: Fc region site-specifically modified (Lys252, Eu numbering) by one molecule per antibody of antibody-modification peptide (SEQ ID NO: 10 with Xaa2 = lysine, disulfide between its two cysteines, N-terminal diglycolic acid-PEG8-ethyl azide); azide click-reacted with ^89Zr-chelated DOTAGA-DBCO
notes: also called RI-labeled anti-MUC5AC humanized antibody prepared using ^89Zr-labeled DOTAGA-DBCO; ^89Zr complex-labeled antibody
binding ratio to the MUC5AC positive tumor and the negative tumor [2]: 138 fold

B3: ^89Zr-labeled anti-MUC5AC humanized antibody prepared using ^89Zr-labeled DOTA-Bn-DBCO (monovalent antibody; H01L03) (antibody, human IgG1, kappa, V domains shown)
VH: B1 VH
VL: B1 VL
modifications: Fc region site-specifically modified (Lys252, Eu numbering) by one molecule per antibody of antibody-modification peptide (SEQ ID NO: 10 with Xaa2 = lysine, disulfide between its two cysteines, N-terminal diglycolic acid-PEG8-ethyl azide); azide click-reacted with ^89Zr-chelated DOTA-Bn-DBCO (formula L1-4)
notes: also called RI-labeled anti-MUC5AC humanized antibody prepared using ^89Zr-labeled DOTA-Bn-DBCO
binding ratio to the MUC5AC positive tumor and the negative tumor [2]: 151 fold
